Biological target: 40S-containing ribosomal complexes
Experiment: co-sedimentation

B1: DExH-box protein DHX29 (enzyme)
chain: MGGKNKKHKAPGAAAVRAAVSASRAKSAEAAAAGEAQSKKPVARPPPAAAAGAREPRVKQGPKIYSFNSANDSGGPANVDKSILKVVINNKLEQRIIGVINEHKKQNNDKGMISGRLTAKKLQDLYMALQAFSFKTKDIEDAMTNTLLHGGDLHSALDWLCLNLSDDALPEGFSQEFEEQQAKSRPKFQAPQIQATISPPLQPKIKKQEEDPKIKPKKEDKNMEVNMKEWILQYAERQKEEEKSESSKSLEEEEKFDPNERYLHLAAKFLDAKEQAAAFKLEKNKQGQKEAQEKIRKFQREMETLEDHPVFNPAIKISYQQNERKKPPVATEGESSLNFNLFEKSAAPTEEEKDKKKEPHDVRNFDYTARSWTGKSPKQFLIDWVRKNLPKSPNPSFEKVPVGRYWKCRVRVIKSEDDVLVVCPAILTEDGMQAQHLGATLALYRLVKGQSVHQLLPPTYRDVWLEWSDAEKKKEELNKMETNKPRDLFIAKLLNKLKQQQQLQQQHSENKKENSEDPEESWENLVSEEDFSALSLESAVAEDLEPVRNLFRKLQSSPKYQRLLKERQQLPVFKHRESIVETLKRHRVVVVAGETGSGKSTQVPHFLLEDLLLNEWGTSKCNIICTQPRRISAVSLATRVCDELGCENGPGGRNSLCGYQIRMESRASESTRLLYCTTGVLLRKLQEDGLLSNVSHVIVDEVHERSVQSDFLLVILKEILQKRSDLHLILMSATVDSEKFSTYFTHCPILRISGRSYPVEVFHLEDIIEETGFVLEKDSEYCQKFLEEEEEITINVTSKAGGIKKYQEYIPVQTGTTADLNPLYQKYSNRTQHAILYMNPHKINLDLILELLVYLDKSPQFRNIEGAVLIFLPGLAHIQQLYDLLSNDRRFYSERYKVIALHSILSTQDQAAAFTLPPPGVRKIVLATNIAETGITIPDVVFVIDTGRTKENKYHESSQMSSLVETFVSKASALQRQGRAGRVRDGFCFRMYTRERFEGFMDYSVPEILRVPLEELCLHIMKCNLGSPEDFLSKALDPPQLQVISNAMNLLRKIGACELNEPKLTPLGQHLAALPVNVKIGKMLIFGAIFGCLDPVATLAAVMTEKSPFTTPIGRKEEADLAKSALAIADSDHLTIYNAYLGWKKAQQEGGYRSELAYCRRNFLNRTALLTLEDVKQELMKLVKAAGFSSTTSNNWEGNRASQTLSFQEIALLKAVLAAGLYDNVGKIIYTKSVDVTEKLACIVETAQGKAQVHPSSVNRDLQTYGWLLYQEKIRYARVYLRETTLITPFPVLLFGGDIEVQHRERLLSIDGWIYFQAPVKIAVIFKQLRVLIDSVLRKKLENPKMSLENDKILQIITELIKTENN
With B1 the percent of 40S-ribosomal complexes associated with DHX29 was 10%.

— publication PMC2948571
